Consider nine molecules from patent US7892771B2, “Crystal structure of soluble glutaminyl cyclase” (Academia Sinica, priority 2006, dated 2011).

The labels stand for the following.
B1: R54W: site-directed mutant R54W of human QC (protein)
chain: MAGGRHRRVVGTLHLLLLVAALPWASRGVSPSASAWPEEKNYHQPAILNSSALWQIAEGTSISEMWQNDLQPLLIERYPGSPGSYAARQHIMQRIQRLQADWVLEIDTFLSQTPYGYRSFSNIISTLNPTAKRHLVLACHYDSKYFSHWNNRVFVGATDSAVPCAMMLELARALDKKLLSLKTVSDSKPDLSLQLIFFDGEEAFLHWSPQDSLYGSRHLAAKMASTPHPPGARGTSQLHGMDLLVLLDLIGAPNPTFPNFFPNSARWFERLQAIEHELHELGLLKDHSLEGRYFQNYSYGGVIQDDHIPFLRRGVPVLHLIPSPFPEVWHTMDDNEENLDESTIDNLNKILQVFVLEYLHL
B2: F325A: site-directed mutant F325A of human QC (protein)
chain: B1 chain with W54R, F325A
B3: E201D: site-directed mutant E201D of human QC (protein)
chain: B1 chain with W54R, E201D
B4: W207L: site-directed mutant W207L of human QC (protein)
chain: B1 chain with W54R, W207L
B5: K144A: site-directed mutant K144A of human QC (protein)
chain: B1 chain with W54R, K144A
B6: W207F: site-directed mutant W207F of human QC (protein)
chain: B1 chain with W54R, W207F
B7: Q304L: site-directed mutant Q304L of human QC (protein)
chain: B1 chain with W54R, Q304L
B8: F146A: site-directed mutant F146A of human QC (protein)
chain: B1 chain with W54R, F146A
B9: W329A: site-directed mutant W329A of human QC (protein)
chain: B1 chain with W54R, W329A

What is called Km is the concentration of substrate that gives half-maximal velocity. A word on the kcat: it is the number of substrate molecules converted per active site and unit of time at saturation.

Changes are numbered by the printed parent chain. Numbers in names are those of the source.

In this series the test system is human QC. The series can be described thus: Kinetic parameters of wild-type and mutant human QC. Format: biochemical. The settings on record: pH 8.0.
As for B1, the Km was 760 ± 40 µM and the kcat is 7.35 ± 0.26 s⁻¹.

On to B2, for which the Km came to 4670 ± 240 µM and the kcat was 12.91 ± 0.06 s⁻¹.

In the case of B3, the Km turned out to be 12600 ± 2980 µM and the kcat is 0.87 ± 0.28 s⁻¹.

With B4, the Km turned out to be 1770 ± 70 µM and the kcat turned out to be 0.43 ± 0.01 s⁻¹.

With B5, the Km came out at 1470 ± 20 µM and the kcat is 11.67 ± 0.34 s⁻¹.

Turning to B6, the Km is 590 ± 50 µM and the turnover number (kcat) amounted to 2.32 ± 0.07 s⁻¹.

Take B7: the Km was 1160 ± 90 µM and the kcat came to 9.39 ± 1.18 s⁻¹.

On to B8, for which the Km was found to be 820 ± 160 µM and the kcat worked out at 7.91 ± 2.14 s⁻¹.

Take B9: the Km amounted to 29500 ± 2290 µM and the turnover number (kcat) was found to be 1.35 ± 0.07 s⁻¹.
